Common to all, as to assay: cross-linking; in vivo photo-cross-linking in BamA mutant strains (chromosomal bamA replaced; pBpa at 64, at 132, or at both); blot with antibodies against SurA, bands quantified with ImageJ against nonspecific bands as internal control; repeated twice
For one test, the target named is BamA-D132pBpa (E. coli) (UniProt P0A940).
The target of test [1] is BamA-R64&D132pBpa (E. coli) (UniProt P0A940).
The next test addresses BamA-R64pBpa (E. coli) (UniProt P0A940).

Where “and” joins values, the source holds several entries; their conditions need not be identical. Identical values can stand only once.

By stoichiometry N is commonly meant a count of units in the complex or per binding partner.

Chain of SurA (P0ABZ6 21-428): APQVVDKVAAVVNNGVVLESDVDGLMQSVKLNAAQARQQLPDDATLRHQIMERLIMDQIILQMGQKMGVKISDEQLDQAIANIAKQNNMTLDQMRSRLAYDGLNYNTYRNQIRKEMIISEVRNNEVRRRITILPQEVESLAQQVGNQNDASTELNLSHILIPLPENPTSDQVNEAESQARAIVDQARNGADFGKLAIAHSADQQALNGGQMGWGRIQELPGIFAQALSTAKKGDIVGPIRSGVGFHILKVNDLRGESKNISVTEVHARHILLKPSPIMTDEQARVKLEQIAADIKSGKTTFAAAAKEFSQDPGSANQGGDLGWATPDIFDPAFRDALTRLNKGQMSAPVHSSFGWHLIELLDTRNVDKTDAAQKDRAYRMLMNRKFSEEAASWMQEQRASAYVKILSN

“SurA (from UniProt P0ABZ6 21-428) (natural protein)”: the amount of cross-linked product (ImageJ, against nonspecific bands) with BamA-D132pBpa (E. coli) was 2.12; in test [1], 1 and 1.02; with BamA-R64pBpa (E. coli), 1.97. In test [1], this substance showed a stoichiometry N of 1. Moreover, in test [1], the sum of the amounts of the two cross-linked products (ImageJ) amounted to 2.02.
